Biological target: T1, L1-Fc (human L1-Fc protein comprising the ectodomain of L1) (human, UniProt P32004 20-1120)
T1 construct: extracellular domain; also called L1CAM; CD171; not shown: Fc part
Assay: SPR, BIAcore 3000, L1-Fc immobilised on CM5 chip, antibody injected
Method: (§1) Affinity to L1 may be determined by methods known in the art, as for example by surface plasmon resonance. The binding analysis for L1-OV52.24 was performed using a BIAcore 3000 equipped with a CM5 sensor chip. Briefly, a BIAcore CM5 chip was activated with EDC/NHS and various levels of L1-Fc were captured onto the activated surface. The remaining active sites were blocked by ethanolamine/HCl. L1-OV52.24 was bound to the L1-Fc surface and allowed to dissociate over time. The association and dissociation phases for each injection over each density surface were subjected to kinetic analysis.
as §1, with “The” for “Affinity to L1 may be determined by methods known in the art, as for example by surface plasmon resonance. The”, “analysis” for “analysis for L1-OV52.24”, “L1-mAb were” for “L1-OV52.24 was”

T1 sequence (P32004 20-1120): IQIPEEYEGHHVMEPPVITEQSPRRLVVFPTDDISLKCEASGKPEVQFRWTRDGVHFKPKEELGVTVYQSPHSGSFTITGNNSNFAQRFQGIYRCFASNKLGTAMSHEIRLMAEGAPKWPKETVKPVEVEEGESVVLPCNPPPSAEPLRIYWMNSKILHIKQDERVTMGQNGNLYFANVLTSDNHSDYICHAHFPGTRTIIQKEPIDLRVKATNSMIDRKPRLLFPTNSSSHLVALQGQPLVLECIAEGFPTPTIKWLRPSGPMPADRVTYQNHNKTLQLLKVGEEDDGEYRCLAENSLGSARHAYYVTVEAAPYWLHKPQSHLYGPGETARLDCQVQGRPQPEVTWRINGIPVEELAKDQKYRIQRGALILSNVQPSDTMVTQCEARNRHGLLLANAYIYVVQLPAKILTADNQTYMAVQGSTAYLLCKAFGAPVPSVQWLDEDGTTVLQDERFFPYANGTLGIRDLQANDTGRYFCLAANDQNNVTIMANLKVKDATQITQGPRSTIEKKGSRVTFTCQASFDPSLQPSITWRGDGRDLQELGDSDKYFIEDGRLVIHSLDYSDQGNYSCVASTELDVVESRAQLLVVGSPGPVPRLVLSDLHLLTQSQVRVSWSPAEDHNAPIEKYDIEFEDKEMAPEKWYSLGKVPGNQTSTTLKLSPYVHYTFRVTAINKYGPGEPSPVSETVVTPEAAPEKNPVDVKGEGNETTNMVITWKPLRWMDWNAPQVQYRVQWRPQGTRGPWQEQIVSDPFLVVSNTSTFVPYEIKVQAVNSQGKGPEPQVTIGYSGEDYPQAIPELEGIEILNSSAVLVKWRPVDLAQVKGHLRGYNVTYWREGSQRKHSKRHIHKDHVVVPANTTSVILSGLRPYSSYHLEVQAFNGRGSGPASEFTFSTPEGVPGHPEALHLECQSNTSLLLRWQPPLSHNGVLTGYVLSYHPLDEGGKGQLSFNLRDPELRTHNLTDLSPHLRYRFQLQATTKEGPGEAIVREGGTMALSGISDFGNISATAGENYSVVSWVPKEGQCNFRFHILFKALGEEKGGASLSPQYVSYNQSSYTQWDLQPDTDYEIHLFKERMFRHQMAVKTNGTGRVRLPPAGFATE

- Kd: 2.41 nM
B1: monoclonal antibody L1-OV52.24 (antibody, IgG1, V domains shown)
VH: EVQLQQSGAELVRPGALVKLSCKASGFNIKDYYMQWVKQRPEQGLEWIGWIDPENGKTVFDPKFRGKASISADTSSNTAYLQLSSLTSEDTAVYYCARWNPLAFWGQGTLVTVSS
VL: DIVMTQSQKFMSTSVGDRVSVTCKASQNVGTNVAWYQQKPGHSPKALIYSTSYRYSGVPDRFTGSGSGTDFTLTIRNVQSEDLAEYFCQQYNTYPYTFGGGTKLEIK
notes: also called mAb L1-OV52.24; L1CAM mAb OV52.24
